Assay results as given in paper PMC6987182.

Tested on: Asp97
Experiment: UV-vis
Conditions: 150 mM NaCl; 50 mM Tris-HCl; Dark/ground state, retinal-bound, detergent-solubilised purified protein

## HSG119 rhodopsin (blue-light absorbing proteorhodopsin homologue) (uncultured marine bacterium (metagenome sample HSG070119-03, seawater near King Sejong Station, King George Island, Antarctica))
  pKa: around 5.8 and 8.0
